Laboratory results published in publication PMC10022779, “Purification and biochemical analysis of native AMPA receptors from three different mammalian species” (PLOS ONE, 2023).

Experiments:
Settings in all cases: one partner purified
[1] = target: T1, GluA2 in native GluA2-containing AMPARs from pig brain (Sus scrofa (pig), endogenous brain, UniProt A0A287AEG6); assay: SEC; fluorescence-size exclusion chromatography (FSEC), GFP fluorescence; 15F1-GFP Fab added to membranes solubilized in 2% digitonin (w/v), equal masses of membranes from each mammal
T1 construct: AMPA receptor subunit GluA2, pig, endogenous in brain; also called native pig AMPARs; source: endogenous, pig brain membranes, solubilized in 2% digitonin

[2] = target: T2, GluA2 in native GluA2-containing AMPARs from rat brain (Rattus norvegicus, Sprague Dawley, UniProt P19491); assay: as above
T2 construct: AMPA receptor subunit GluA2, rat, endogenous in brain; also called native rat AMPARs; source: endogenous, rat (Sprague Dawley) brain membranes, solubilized in 2% digitonin

[3] = target: T3, GluA2 in native GluA2-containing AMPARs from mouse brain (Mus musculus, C57BL/6, UniProt P23819); assay: pull-down; immunoaffinity purification: 15F1-GFP incubated with digitonin-solubilized membrane supernatant (on ice, 20 min), 15F1-GFP-bound AMPARs held on Streptactin resin by the twin-Strep II tag, eluted with 8 mM d-desthiobiotin, then SEC (Superose 6) in TBS, 1 uM (R,R)-2b, 1 uM MPQX, 0.075% digitonin; read out by FSEC and silver-stained SDS-PAGE
T3 construct: AMPA receptor subunit GluA2, mouse, endogenous in brain; also called native mouse AMPARs; source: endogenous, mouse (C57BL/6) brain membranes, solubilized in 2% digitonin

Measured: binding result

T3 sequence (P23819 25-883): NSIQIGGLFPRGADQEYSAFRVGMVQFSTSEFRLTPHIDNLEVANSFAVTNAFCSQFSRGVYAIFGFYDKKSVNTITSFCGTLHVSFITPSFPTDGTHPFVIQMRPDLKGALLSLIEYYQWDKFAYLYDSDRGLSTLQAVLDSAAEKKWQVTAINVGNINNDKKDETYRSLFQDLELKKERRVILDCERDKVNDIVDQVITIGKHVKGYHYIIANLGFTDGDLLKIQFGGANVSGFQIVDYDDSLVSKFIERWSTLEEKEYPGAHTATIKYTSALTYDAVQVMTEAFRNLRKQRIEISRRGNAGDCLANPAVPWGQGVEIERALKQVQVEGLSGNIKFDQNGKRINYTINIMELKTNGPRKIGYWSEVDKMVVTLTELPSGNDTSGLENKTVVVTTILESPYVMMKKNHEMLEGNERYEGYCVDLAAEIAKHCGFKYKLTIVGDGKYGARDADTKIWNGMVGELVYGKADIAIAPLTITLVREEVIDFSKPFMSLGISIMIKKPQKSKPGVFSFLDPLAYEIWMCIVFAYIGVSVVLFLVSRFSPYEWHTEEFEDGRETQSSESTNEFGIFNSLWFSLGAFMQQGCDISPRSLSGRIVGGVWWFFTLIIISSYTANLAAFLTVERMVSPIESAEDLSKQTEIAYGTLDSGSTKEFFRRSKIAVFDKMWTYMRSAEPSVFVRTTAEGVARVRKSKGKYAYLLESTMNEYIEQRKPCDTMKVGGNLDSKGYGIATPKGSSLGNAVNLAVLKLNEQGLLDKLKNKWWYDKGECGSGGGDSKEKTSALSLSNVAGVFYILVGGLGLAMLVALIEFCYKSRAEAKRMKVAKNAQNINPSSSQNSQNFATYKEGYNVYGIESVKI
T2 sequence (P19491 22-883): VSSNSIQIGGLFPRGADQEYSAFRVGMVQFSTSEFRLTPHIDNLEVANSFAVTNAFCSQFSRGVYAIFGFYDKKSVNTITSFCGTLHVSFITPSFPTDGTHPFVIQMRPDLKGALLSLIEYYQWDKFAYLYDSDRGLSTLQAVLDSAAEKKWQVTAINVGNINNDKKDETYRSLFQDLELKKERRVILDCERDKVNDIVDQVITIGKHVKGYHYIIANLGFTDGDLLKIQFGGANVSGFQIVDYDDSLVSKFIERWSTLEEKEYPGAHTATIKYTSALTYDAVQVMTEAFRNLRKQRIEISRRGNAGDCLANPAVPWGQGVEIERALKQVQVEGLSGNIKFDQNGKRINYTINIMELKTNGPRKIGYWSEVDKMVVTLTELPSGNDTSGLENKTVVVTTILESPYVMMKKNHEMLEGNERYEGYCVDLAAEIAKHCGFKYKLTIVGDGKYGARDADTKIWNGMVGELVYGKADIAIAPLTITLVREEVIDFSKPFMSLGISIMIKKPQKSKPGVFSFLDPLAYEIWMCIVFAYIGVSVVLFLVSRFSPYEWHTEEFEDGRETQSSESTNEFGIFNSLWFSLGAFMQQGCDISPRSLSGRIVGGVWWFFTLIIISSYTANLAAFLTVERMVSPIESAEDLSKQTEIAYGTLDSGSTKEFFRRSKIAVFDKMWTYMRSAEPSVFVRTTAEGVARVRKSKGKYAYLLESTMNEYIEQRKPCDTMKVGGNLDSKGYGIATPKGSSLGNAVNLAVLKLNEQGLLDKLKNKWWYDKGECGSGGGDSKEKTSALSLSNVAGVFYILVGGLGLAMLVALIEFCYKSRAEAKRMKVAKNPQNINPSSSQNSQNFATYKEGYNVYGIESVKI

B1: 15F1-GFP Fab (Fab, V domains shown)
VH: QAQLKESGPGLVAPSQSLSITCTVSGFSLTNYGVHWVRQPPGKGLEWLGVIWAGGSTNYNSALMSRVSISKDNSKSQVFLKMNSLQTDDTVMYYCAREDYDYDWHFDVWGAGTTVTVSS
VL: EIQMTQTTSSLSASLGDRVTISCRASQDISNYLSWYQQKPDGTVKLLIYYTSRLHSGVPSRFSGSGSGIDYSLTINNLEQEDFATYFCQQGNTLPLTFGAGTKLELK
notes: Fab domain of the heavy chain of the 15F1 monoclonal antibody; Fab domain of the light chain of the 15F1 monoclonal antibody; On the heavy chain eGFP is followed by the twin-Strep II tag; also called 15F1 Fab; anti-GluA2 antibody fragment; not shown: eGFP, C-terminal, kept; twin-Strep II, C-terminal, kept
binds: [1] | [2] | [3]
